Experimental data: patent US20080050375A1 (Eli Lilly, published 2008)
Each block holds one binder with its values, some of them ahead of it.

Key:
[1] = molecular target: T1, TGF-beta 1 mutein (R25K, K26R, V33I, P87T, V89L, K95T) (Homo sapiens (Human), UniProt P01137 279-390, Mature TGF-beta 1 is a disulfide-linked homodimer; one monomer chain is given.); experiment: laser desorption/ionization time-of-flight MS on chips (Ciphergen)
T1 chain: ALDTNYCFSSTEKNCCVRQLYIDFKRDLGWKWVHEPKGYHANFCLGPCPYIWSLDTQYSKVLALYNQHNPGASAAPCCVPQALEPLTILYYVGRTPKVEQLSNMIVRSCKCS

[2] = molecular target: T2, human TGF-beta 3 (RDI, Cat # RDI-1036/CF) (human) (UniProt P10600); experiment: ratio of Biacore Kd for TGF-β3 to Kd for TGF-β1
T2 sequence (looked up): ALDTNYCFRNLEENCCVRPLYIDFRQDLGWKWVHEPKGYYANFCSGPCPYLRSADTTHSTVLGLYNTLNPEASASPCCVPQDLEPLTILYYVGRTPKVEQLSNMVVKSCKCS

[3] = molecular target: human TGF-beta 1 (R&D Systems, Cat # 240-B/CF) (human) (UniProt P01137); experiment: Biacore SPR, mAb captured on Protein A, TGF-beta 1 injected
[4] = molecular target: human TGF-beta 1 (R&D Systems, Cat # 240-B/CF) (human) (UniProt P01137); experiment: Biacore SPR, calculated koff/kon
[5] = molecular target: T2, human TGF-beta 3 (RDI, Cat # RDI-1036/CF) (human); experiment: Biacore SPR, equilibrium fit, mAb captured on Protein A, TGF-β3 injected
[6] = molecular target: T3, latent TGF-beta 1 (UniProt P01137 30-390, limits assumed); experiment: Biacore SPR, mAb captured on Protein A, 5 nM ligand injected; stoichiometry from captured signals
T3 construct: Latent complex (pro-peptide with mature TGF-beta 1); also called Latent TGF-β1; latent form of TGF-beta 1
T3 sequence (P01137 30-390 limits assumed): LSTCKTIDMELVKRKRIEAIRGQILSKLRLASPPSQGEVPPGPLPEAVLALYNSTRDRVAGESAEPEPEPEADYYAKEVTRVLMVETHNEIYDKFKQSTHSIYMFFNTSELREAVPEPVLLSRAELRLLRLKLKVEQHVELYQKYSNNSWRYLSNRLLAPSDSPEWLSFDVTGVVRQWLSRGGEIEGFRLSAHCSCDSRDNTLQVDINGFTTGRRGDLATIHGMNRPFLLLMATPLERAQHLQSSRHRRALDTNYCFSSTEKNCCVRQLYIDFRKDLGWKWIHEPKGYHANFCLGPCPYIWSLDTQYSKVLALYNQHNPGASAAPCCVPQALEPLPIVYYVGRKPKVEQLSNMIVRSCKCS
Method: (§1) BIAcore methods are used to determine the ability of invention mAb compositions to bind other entities, specifically the latent form of TGF-beta 1 or TGF-beta 3. All measurements are performed at room temperature. Samples are dissolved in HBS-EP buffer (150 mM sodium chloride, 3 mM EDTA, 0.01% (w/v) surfactant P-20, and 10 mM HEPES, pH7.4). Recombinant Protein A is immobilized on all four flow cells of a CM4 sensor chip at a level of 400-450 response units (RUs) using an amine coupling kit.
(§2) Binding is evaluated using multiple analytical cycles. Each cycle is performed at a flow rate of 100 μL/minute consisting of the following steps: injection of 15 μL of an antibody binding composition at 1 μg/mL, injection of 250 μL of either 5 nM TGF-beta 1, 5 nM latent TGF-beta 1, or 5 nM TGF-beta 3 followed by a short delay (5 min) for dissociation, and regeneration using two injections of 50 μL of 10 mM glycine hydrochloride, pH1.5. The amount of signal after capturing first the Mab, and then the ligand, are determined using the instrument control software. Since the signal is proportional to the mass of protein captured, the stoichiometry of the captured ligand is readily calculable (Table 4).

[7] = molecular target: human TGF-beta 1 (R&D Systems, Cat # 240-B/CF) (human) (UniProt P01137); experiment: as above
[8] = molecular target: human TGF-beta 1 (R&D Systems, Cat # 240-B/CF) (human) (UniProt P01137); experiment: cell-based or functional assay
[9] = molecular target: human TGF-beta 1 (R&D Systems, Cat # 240-B/CF) (human) (UniProt P01137); experiment: KinExA 3000, Fab in solution, antigen on beads
[10] = molecular target: human TGF-beta 1 (R&D Systems, Cat # 240-B/CF) (human) (UniProt P01137); experiment: KinExA 3000, equilibrium, Fab in solution
[11] = molecular target: human TGF-beta 1 (R&D Systems, Cat # 240-B/CF) (human) (UniProt P01137); experiment: calculated from KinExA Kd and kon
[12] = molecular target: T4, human TGF-beta 1 (R&D Systems, Cat # 240-B/CF) (human, UniProt P01137 279-390); experiment: Biacore SPR, mAb captured on Protein A, TGF-beta 1 injected
T4 construct: They match K95 and residues 58-61 of mature numbering; also called TGF-β1; mature TGF-β1
Method: (§3) Alternate methods of measuring kinetic constants are known, for example: affinity of a binding composition for human TGF-beta 1 (R&D Systems, Cat #240-B/CF), TGF-beta 2 (RDI, Cat # RDI-1035) and TGF-beta 3 (RDI, Cat # RDI-1036/CF) is measured using a BlAcore® 2000 instrument. The BIAcore® utilizes the optical properties of surface plasmon resonance to detect alteration in protein concentration of interacting molecules within a dextran biosensor matrix. Except as noted, all reagents and materials are purchased from BIAcore® AB (Upsala, Sweden). All measurements are performed at room temperature. Samples are dissolved in HBS-EP buffer (150 mM sodium chloride, 3 mM EDTA, 0.01% (w/v) surfactant P-20, and 10 mM HEPES, pH7.4). Recombinant Protein A is immobilized on all four flow cells of a CM4 sensor chip at a level of 400-450 response units (RUs) using an amine coupling kit.
(§4) Binding is evaluated using multiple analytical cycles. Each cycle is performed at a flow rate of 50 μL/minute and consists of the following steps: injection of 12 μL of an antibody binding composition at 0.5 μg/mL, injection of 250 μL of TGF-beta 1 (starting at 5 nM and using two-fold serial dilutions to 0.13 nM for each cycle, with two injections for each concentration) followed by either a short (5 minutes) or long (120 minutes) delay for dissociation, and regeneration using two injections of 50VL of 10 mM glycine hydrochloride, pH1.5. Association and dissociation rates for each cycle are determined by fitting of the biosensor data using to a simple association model using ClampXP (Center for Biomolecular Interaction Analysis, Univ. of Utah) to extract the kₒₙ and koff rate constants; the equilibrium binding constant Kd is calculated using the relationship Kd=koff/kₒₙ. Model data for invention compositions are in Table 3 shown below.

[13] = molecular target: T4, human TGF-beta 1 (R&D Systems, Cat # …); experiment: Biacore SPR, calculated koff/kon
Method: as §3, §4

[14] = molecular target: T5, human TGF-beta 3 (RDI, Cat # RDI-1036/CF) (human, UniProt P10600 301-412); experiment: Biacore SPR, mAb captured on Protein A, 5 nM ligand injected; stoichiometry from captured signals
T5 construct: Bought recombinant protein; also called TGF-β3; TGF-p3
T5 sequence (looked up): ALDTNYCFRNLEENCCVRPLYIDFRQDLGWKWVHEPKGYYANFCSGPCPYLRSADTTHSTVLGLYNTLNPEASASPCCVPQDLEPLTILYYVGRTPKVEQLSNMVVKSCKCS
Method: as §1, §2

[15] = molecular target: T4, human TGF-beta 1 (R&D Systems, Cat # …); experiment: as above
Method: as §1, §2

[16] = molecular target: T5, human TGF-beta 3 (RDI, Cat # …); experiment: Biacore SPR, equilibrium fit, mAb captured on Protein A, TGF-β3 injected
Method: (§5) Affinities of binding composition mAbs for TGF-p3 are determined using BIAcore methods. All measurements are performed at room temperature. Samples are dissolved in HBS-EP buffer (150 mM sodium chloride, 3 mM EDTA, 0.01% (w/v) surfactant P-20, and 10 mM HEPES, pH7.4). Recombinant Protein A is immobilized on four flow cells of a CM4 sensor chip at a level of 400-450 response units (RUs) using an amine coupling kit. Binding is evaluated over multiple analytical cycles. Each cycle is performed at a flow rate of 100 μL/minute consisting of the following steps: injection of 15 μL of an antibody binding composition at 0.5 μg/mL, injection of 250 μL of TGF-β3 (starting at 5 nM and using two-fold serial dilutions to 0.13 nM for each cycle, with two injections for each concentration) followed by a short (5 minutes) delay for dissociation, and regeneration using two injections of 50VL of 10 mM glycine hydrochloride, pH1.5.
(§6) Affinities are determined based upon the equilibrium signal as reached at varying TGF-β3 concentrations by measuring the average signal during the last 10 seconds of the TGF-β3 injections, and then fitting the resulting signals at all of the TGF-β3 concentrations to a simple binding equilibrium model in SCRUBBER (Center for Biomolecular Interaction Analysis, Univ. of Utah). Model data determined for tested human mab composition of the invention of Kd and specificity calculated by dividing the Kd for TGF-β3 binding by the Kd for TGF-β1 binding (herein) is shown below in Table 5.

[17] = molecular target: T5, human TGF-beta 3 (RDI, Cat # …); experiment: ratio of Biacore Kd for TGF-β3 to Kd for TGF-β1
Method: as §5, §6

[18] = molecular target: T4, human TGF-beta 1 (R&D Systems, Cat # …); experiment: cell-based or functional assay

B1: mAb 1D11 (R&D Systems) (antibody, V domains shown)
VH: QVQLQQSGPELVRPGASVKLSCKASGYIFITYWMNWVKQRPGQGLEWIGQIFPASGSTNYNEMFEGKATLTVDTSSSTAYMQLSSLTSEDSAVYYCARGDGNYALDAMDYWGQGTSVTVSS
VL: DIVLTQSPASLAVSLGQRATISCRASESVDSYGNSFMHWYQQKSGQPPKLLIYLASNLESGVPARFSGSGSRTDFTLTIDPVEADDAATYYCQQNNEDPLTFGAGTKLEIK
fold less binding of the TGF-beta 1 mutein relative to wild type TGF-beta 1 [1]: 2.5 fold

Specificity (Kd, β3/Kd, β1) [2]: 3670 fold
koff [3]: 8e-06 s⁻¹
kon [3]: 1.3e+07 M⁻¹ s⁻¹
Kd [4]: 0.6 pM
Kd [5]: 2200 pM
Stoichiometry of ligand binding [6]: 0.08
Stoichiometry of ligand binding [7]: 1.74
Fold Improvement in IC50 relative to mAb2471 (HT-2 cell proliferation assay) [8]: 401 fold
B2: mAb C27 (antibody, IgG4, V domains shown)
VH: QVQLVQSGAEVKKPGASVKVSCKASGYTFTDYNIHWVRQAPGQGLEWMGYIYPYDGETGYNQKFKSRVTMTTDTSTSTAYMELRSLRSDDTAVYYCARGYRAFEYWGQGTLVTVSS
VL: DIQMTQSPSSLSASVGDRVTITCRASSSVPYMHWYQQKPEKAPKSLIYATSNLAFGVPSRFSGSGSGTDFTLTISSLQPEDFATYYCQQWDLNPPAFGQGTKLEIK

kon [9]: 4.1e+06 M⁻¹ s⁻¹
Kd [10]: 4.2 pM
koff [11]: 1.7e-05 s⁻¹
B3: Fab C27 (Fab, V domains shown)
VH: QVQLVQSGAEVKKPGASVKVSCKASGYTFTDYNIHWVRQAPGQGLEWMGYIYPYDGETGYNQKFKSRVTMTTDTSTSTAYMELRSLRSDDTAVYYCARGYRAFEYWGQGTLVTVSS
VL: DIQMTQSPSSLSASVGDRVTITCRASSSVPYMHWYQQKPEKAPKSLIYATSNLAFGVPSRFSGSGSGTDFTLTISSLQPEDFATYYCQQWDLNPPAFGQGTKLEIK

koff [12]: < 7e-06 s⁻¹
kon [12]: 1.3e+07 M⁻¹ s⁻¹
Kd [13]: < 0.5 pM
Stoichiometry of ligand binding [14]: 0.54
Stoichiometry of ligand binding [6]: 0.04
Stoichiometry of ligand binding [15]: 1.23
Kd [16]: 1160 pM
Specificity (Kd, β3/Kd, β1) [17]: 2320 fold
Fold Improvement in IC50 relative to mAb2471 (HT-2 cell proliferation assay) [18]: 140 fold
B4: mAb DM7 (antibody, IgG4, V domains shown)
VH: QVQLVQSGAEVKKPGASVKVSCKASGYDFTDYNMHWVRQAPGQGLEWMGYIYPYDGETGYNQKFKSRVTMTTDTSTSTAYMELRSLRSDDTAVYYCARGYRWLYYWGQGTLVTVSS
VL: DIQMTQSPSSLSASVGDRVTITCRASSSVSYMHWYQQKPGKAPKPLIYATSNLAKGVPSRFSGSGSGTDFTLTISSLQPEDFATYYCQQWDLNPPAFGQGTKLEIK
